Target: actin from rabbit skeletal muscle (F actin) (rabbit, UniProt P68135 1-377)
Assay: co-sedimentation

stoichiometry N: 6 actin monomers per transgelin
B1: transgelin (natural protein)
chain: MANKGPSYGMSREVQSKIEKKYDEELEERLVEWIVVQCGPDVGRPDRGRLGFQVWLKNGVILSKLVNSLYPDGSKPVKVPENPPSMVFKQMEQVAQFLKAAEDYGVTKTDMFQTVDLFEGKDLAAVQRTLMALGSLAVTKNDGHYRGDPNWFMKKAQEHKREFTESQLQEGKHVIGLQMGSNRGASQLAGHSILPRLPHTQPCSSFSPGQASRLRH

Source: article PMC2119678 (The Journal of Cell Biology, 1993)
